Test [1] concerns the target T1, hPCSK9 166-181 synthetic peptide (human).
T1 peptide: YRADEYQPPDGGSLVE
The experiment in a line: binding kinetics to synthetic peptide (method not named in Example 3).

For test [2], the target named is T2, hPCSK9 163-174 synthetic peptide (human).
T2 peptide: PPRYRADEYQPP
Described as above.

Test [3] concerns the target T3, hPCSK9 160-181 synthetic peptide (human).
T3 construct: Numbered on complete human PCSK9 including the twenty-eight amino acid signal peptide
T3 peptide: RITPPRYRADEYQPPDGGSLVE
Described as above.

In a further test the target is Rat PCSK9 (rat, UniProt P59996 31-691, limits assumed). Briefly: SPR, 25 C, n=2.
Rat PCSK9, sequence (P59996 31-691 limits assumed): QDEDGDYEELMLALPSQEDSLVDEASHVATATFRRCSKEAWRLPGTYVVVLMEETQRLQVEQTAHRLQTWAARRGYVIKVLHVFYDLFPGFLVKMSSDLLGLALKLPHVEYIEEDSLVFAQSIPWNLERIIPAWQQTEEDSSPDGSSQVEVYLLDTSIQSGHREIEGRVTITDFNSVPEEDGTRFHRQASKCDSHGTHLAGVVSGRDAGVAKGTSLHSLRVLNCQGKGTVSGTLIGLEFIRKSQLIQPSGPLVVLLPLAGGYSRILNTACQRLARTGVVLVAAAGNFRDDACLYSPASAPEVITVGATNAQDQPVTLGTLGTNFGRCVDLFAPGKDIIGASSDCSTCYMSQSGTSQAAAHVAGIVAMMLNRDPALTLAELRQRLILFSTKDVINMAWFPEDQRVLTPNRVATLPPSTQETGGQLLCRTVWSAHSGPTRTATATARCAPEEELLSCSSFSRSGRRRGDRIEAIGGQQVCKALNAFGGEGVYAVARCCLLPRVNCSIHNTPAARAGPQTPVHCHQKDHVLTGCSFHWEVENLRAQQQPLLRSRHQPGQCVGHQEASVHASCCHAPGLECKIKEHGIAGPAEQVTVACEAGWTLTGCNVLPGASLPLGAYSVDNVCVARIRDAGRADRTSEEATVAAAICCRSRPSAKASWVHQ
Test [4] deals with Cyno PCSK9 (cynomolgus monkey). Briefly: SPR, 37 C, physiological buffer, n=4, Avg ± SD.
In another test the target is Mouse PCSK9 (mouse, UniProt Q80W65 35-694, limits assumed). Briefly: SPR, 25 C, n=3. In general terms: Surface plasmon resonance follows binding to a sensor surface in real time, without labels.
Mouse PCSK9, sequence (Q80W65 35-694 limits assumed): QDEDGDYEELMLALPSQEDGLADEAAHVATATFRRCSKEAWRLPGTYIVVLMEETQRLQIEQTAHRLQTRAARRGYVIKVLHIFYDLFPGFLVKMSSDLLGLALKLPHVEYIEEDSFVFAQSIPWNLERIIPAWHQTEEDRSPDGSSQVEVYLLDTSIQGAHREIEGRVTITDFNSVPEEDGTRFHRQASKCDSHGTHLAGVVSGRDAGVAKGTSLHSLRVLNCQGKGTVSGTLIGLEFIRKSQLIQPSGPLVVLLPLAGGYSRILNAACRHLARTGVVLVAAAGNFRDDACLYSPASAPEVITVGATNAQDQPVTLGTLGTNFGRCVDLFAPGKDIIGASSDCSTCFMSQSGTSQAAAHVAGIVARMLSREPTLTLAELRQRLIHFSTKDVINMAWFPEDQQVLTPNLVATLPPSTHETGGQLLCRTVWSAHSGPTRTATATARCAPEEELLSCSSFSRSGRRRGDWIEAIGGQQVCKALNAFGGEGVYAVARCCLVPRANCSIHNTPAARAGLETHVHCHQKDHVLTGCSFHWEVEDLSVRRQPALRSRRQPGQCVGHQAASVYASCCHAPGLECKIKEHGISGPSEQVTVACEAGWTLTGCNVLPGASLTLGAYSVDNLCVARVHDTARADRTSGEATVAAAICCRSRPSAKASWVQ
The target of test [5] is T4, Recombinant full length PCSK9, C-terminal HIS-tagged (HEK 293 stable cell line) (human, UniProt Q8NBP7 31-692).
T4 construct: also called C-terminal HIS-tagged recombinant human PCSK9; not shown: C-terminal HIS tag
T4 sequence (Q8NBP7 31-692 limits assumed): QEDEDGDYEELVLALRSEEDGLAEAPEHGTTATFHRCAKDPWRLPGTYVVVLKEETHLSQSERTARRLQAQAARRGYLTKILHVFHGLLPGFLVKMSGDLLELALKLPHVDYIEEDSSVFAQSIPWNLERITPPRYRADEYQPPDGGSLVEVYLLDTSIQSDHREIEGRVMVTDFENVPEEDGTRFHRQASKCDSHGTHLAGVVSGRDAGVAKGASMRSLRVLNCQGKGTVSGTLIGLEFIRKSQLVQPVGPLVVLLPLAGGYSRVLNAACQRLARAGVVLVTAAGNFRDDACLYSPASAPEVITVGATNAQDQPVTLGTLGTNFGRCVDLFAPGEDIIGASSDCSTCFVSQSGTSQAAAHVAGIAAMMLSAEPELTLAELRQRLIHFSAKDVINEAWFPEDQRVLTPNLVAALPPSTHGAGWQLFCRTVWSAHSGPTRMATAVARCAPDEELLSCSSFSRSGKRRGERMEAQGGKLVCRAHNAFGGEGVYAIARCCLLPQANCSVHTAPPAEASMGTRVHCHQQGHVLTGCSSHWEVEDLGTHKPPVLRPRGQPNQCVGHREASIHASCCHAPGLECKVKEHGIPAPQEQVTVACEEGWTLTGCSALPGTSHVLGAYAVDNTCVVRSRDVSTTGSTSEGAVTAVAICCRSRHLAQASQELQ
Briefly: AlphaLISA, inhibition of PCSK9 (1 nM) binding to FLAG-tagged LDLR extracellular domain (1 nM). (In general: Alpha assays give light when donor and acceptor beads are brought close together.)

Test [6] addresses T3, hPCSK9 160-181 synthetic peptide. The experiment in a line: binding kinetics to synthetic peptide, reference intact human PCSK9.
The target in a further test is T5, mature hPCSK9 C-term His (human, UniProt Q8NBP7 29-692).
T5 construct: also called intact human PCSK9; intact PCSK9
T5 sequence (Q8NBP7 other isoform, or with tags, fused parts or gaps limits assumed): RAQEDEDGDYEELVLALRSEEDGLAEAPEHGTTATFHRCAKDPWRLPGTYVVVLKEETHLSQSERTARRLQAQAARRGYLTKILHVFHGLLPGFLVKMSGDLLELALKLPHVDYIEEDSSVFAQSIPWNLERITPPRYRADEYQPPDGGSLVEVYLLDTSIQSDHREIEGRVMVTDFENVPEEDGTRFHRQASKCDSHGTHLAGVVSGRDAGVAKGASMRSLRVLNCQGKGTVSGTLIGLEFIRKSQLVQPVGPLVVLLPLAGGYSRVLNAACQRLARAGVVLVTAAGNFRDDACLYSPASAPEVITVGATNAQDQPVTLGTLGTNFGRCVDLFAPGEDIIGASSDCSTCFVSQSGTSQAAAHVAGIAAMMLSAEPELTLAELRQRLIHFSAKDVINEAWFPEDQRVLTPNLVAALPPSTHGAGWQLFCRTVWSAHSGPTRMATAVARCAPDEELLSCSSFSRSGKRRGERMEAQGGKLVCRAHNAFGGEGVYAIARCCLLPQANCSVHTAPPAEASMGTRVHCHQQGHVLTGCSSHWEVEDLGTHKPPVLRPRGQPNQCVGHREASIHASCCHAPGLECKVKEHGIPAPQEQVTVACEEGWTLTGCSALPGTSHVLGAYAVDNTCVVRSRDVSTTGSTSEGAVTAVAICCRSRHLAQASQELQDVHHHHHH
Briefly: binding kinetics (method not named in Example 3).

The target of a further test is Human PCSK9 (human, UniProt Q8NBP7 31-692). The experiment in a line: SPR, 37 C, physiological buffer, n=6, Avg ± SD.
Human PCSK9, sequence (Q8NBP7 31-692 limits assumed): as the sequence (Q8NBP7 31-692 limits assumed) above

Bounds are passed on as bounds.

Data on 1 molecule can be found in patent US20130071405A1 (Eli Lilly, published 2013).

B1: engineered PCSK9 antibody of Example 1 (antibody, human IgG4 S228P, kappa, F234A L235A, V domains shown)
VH: EVQLVESGGGLVKPGGSLRLSCAASGFPFSKLGMVWVRQAPGKGLEWVSTISSGGGYTYYPDSVKGRFTISRDNAKNSLYLQMNSLRAEDTAVYYCAREGISFQGGTYTYVMDYWGQGTLVTVSS
VL: DIVMTQSPLSLPVTPGEPASISCRSSKSLLHRNGITYSYWYLQKPGQSPQLLIYQLSNLASGVPDRFSGSGSGTDFTLKISRVEAEDVGVYYCYQNLELPLTFGQGTKVEIKR
notes: the controls used are IgG4; also called test PCSK9 antibody
Consider B1, for which the Kd (commonly a measure of binding affinity in units of concentration) in [1] is 34 nM; in [2], 3 nM; in test [3] it was 0.17 nM; in test [4], 25 nM; in the test with mature hPCSK9 C-term His, 1.8 nM; in the test with Human PCSK9, 11 nM. Also, the off-rate constant (koff) (usually a measure of how fast the partners let go of each other) in test [1] is 0.156 s⁻¹; in test [2] it was 0.00831 s⁻¹; in test [3] it was 0.000242 s⁻¹; in [4] it was 0.0025 s⁻¹; in the test with mature hPCSK9 C-term His it was 0.00015 s⁻¹; with Human PCSK9, 0.0012 s⁻¹. Further, the kon (as a rule, a measure of how fast the partners come together) worked out at 4.58e+06 M⁻¹ s⁻¹ in [1]; 2.75e+06 M⁻¹ s⁻¹ in test [2]; 1.45e+06 M⁻¹ s⁻¹ in test [3]; 110000 M⁻¹ s⁻¹ in [4]; 86700 M⁻¹ s⁻¹ in the test with mature hPCSK9 C-term His; 120000 M⁻¹ s⁻¹ in the test with Human PCSK9. Also, the binding result with Rat PCSK9 and with Mouse PCSK9 was “no binding” in each case. Further, in test [5], the half-inhibitory concentration (IC50) (commonly the concentration that gives 50% inhibition) was approximately 0.09 nM. In addition, the “koff fold difference against intact PCSK9” value in test [6] is not above 2 fold.
